According to PMC4044012, “Genome-Based Discovery of a Novel Membrane-Bound 1,6-Dihydroxyphenazine Prenyltransferase from a Marine Actinomycete” (PLoS ONE, 2014):

T1: Mpz10 (Streptomyces sp. SpC080624SC-11, UniProt A0A068CM06)
T1 construct: NcoI/EcoRI in pET-28a(+) (pPH23), apparently untagged; E. coli Rosetta2(DE3)pLysS membrane fraction
T1 sequence (A0A068CM06 1-331): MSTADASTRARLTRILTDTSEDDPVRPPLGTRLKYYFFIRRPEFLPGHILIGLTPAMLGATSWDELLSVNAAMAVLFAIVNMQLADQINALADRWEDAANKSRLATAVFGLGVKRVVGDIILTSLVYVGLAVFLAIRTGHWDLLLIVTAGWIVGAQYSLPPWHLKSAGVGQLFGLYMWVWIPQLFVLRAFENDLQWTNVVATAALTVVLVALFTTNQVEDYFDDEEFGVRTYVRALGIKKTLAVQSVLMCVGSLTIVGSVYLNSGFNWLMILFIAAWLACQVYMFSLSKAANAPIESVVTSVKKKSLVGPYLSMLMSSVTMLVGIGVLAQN

B1: Mpz10 (Streptomyces sp. SpC080624SC-11) (protein)
chain: T1 sequence (A0A068CM06 1-331)
notes: NcoI/EcoRI in pET-28a(+) (pPH23), apparently untagged; E. coli Rosetta2(DE3)pLysS membrane fraction

Columns and labels:
Experiment in all cases: prenyltransferase assay with E. coli membrane fraction, HPLC-UV product quantification
[1] = target: T1, Mpz10; type: biochemical; conditions: read-out: apparent Km; DMAPP co-substrate, 10 mM MgCl2, 50 mM Tris-HCl pH 8.1, 30°C
[2] = substrate: Oc1cccc2nc3c(O)cccc3nc12; type: biochemical, Streptomyces sp. SpC080624SC-11; conditions: 0.5 mM DMAPP constant, 10 mM MgCl2, 50 mM Tris-HCl pH 8.1, 30°C
[3] = substrate: CC(C)=CCOP(=O)(O)OP(=O)(O)O; type: biochemical, Streptomyces sp. SpC080624SC-11; conditions: 0.2 mM 1,6-dihydroxyphenazine constant, 10 mM MgCl2, 50 mM Tris-HCl pH 8.1, 30°C

Row | Molecule | Km [1] [µM] | Km [2] [µM] | Km [3] [µM]
1 | Oc1cccc2nc3ccccc3nc12 [1-hydroxyphenazine] | 9.8 |  | 
2 | B1 |  | 53 | 153
